The source of these data is the DeepSol protein solubility set.

The series can be described thus: soluble on expression in E. coli; label from the status in PepcDB or PDB records.
With “SMGTRPRRKKHDYRIALFGGSQPQSCRYFNPKDYSWTDIRCPFEKRRDAACVFWDNVVYILGGSQLFPIKRMDCYNVVKDSWYSKLGPPTPRDSLAACAAEGKIYTSGGSEVGNSALYLFECYDTRTESWHTKPSMLTQRCSHGMVEANGLIYVCGGSLGNNVSGRVLNSCEVYDPATETWTELCPMIEARKNHGLVFVKDKIFAVGGQNGLGGLDNVEYYDIKLNEWKMVSPMPWKGVTVKCAAVGSIVYVLAGFQGVGRLGHILEYNTETDKWVANSKVRAFPVTSCLICVVDTCGANEETLET”, the “soluble on expression in E. coli” value is given as “soluble”. As to “MAVKLGTLLLALALGLAQPASARRKLLVFLLDGFRSDYISDEALESLPGFKEIVSRGVKVDYLTPDFPSLSYPNYYTLMTGRHCEVHQMIGNYMWDPTTNKSFDIGVNKDSLMPLWWNGSEPLWVTLTKAKRKVYMYYWPGCEVEILGVRPTYCLEYKNVPTDINFANAVSDALDSFKSGRADLAAIYHERIDVEGHHYGPASPQRKDALKAVDTVLKYMTKWIQERGLQDRLNVIIFSDHGMTDIFWMDKVIELNKYISLNDLQQVKDRGPVVSLWPAPGKHSEIYNKLSTVEHMTVYEKEAIPSRFYYKKGKFVSPLTLVADEGWFITENREMLPFWMNSTGRREGWQRGWHGYDNELMDMRGIFLAFGPDFKSNFRAAPIRSVDVYNVMCNVVGITPLPNNGSWSRVMCMLKGRAGTAPPVWPSHCALALILLFLLA”, the “soluble on expression in E. coli” value is on record as “soluble”.

On to “NCSKIHLSTKLLAVDFPAHFVKSISCQICEHILADPVETSCKHLFCRICILRCLKVMGSYCPSCRYPCFPTDLESPVKSFLNILNSLMVKCPAQDCNEEVSLEKYNHHVSSHKESK”, for which the “soluble on expression in E. coli” value is recorded as “soluble”. Take “MKKDQYFNLEVNFLSNDNIVRMMMELDAAQSLGIYMMLLTHLRKADNYEASCCPLCMGAFARMYDLDAGVLQRVLREFDLFVLDEERQMFRSPYLDRVMARLEERRMINVANGKKGGRPKRMESTPETPMDKGEKPNQNQKSREEERRVTTVVKDNNSSNEEKTEKENSAAASDRLQIVSPPEDRGQLPLQPVLPWEMLVDQMAESESYMESMAMHSCMGKLFVERQEEVIAAFKEHIRRFGREDGLLFLRDVKLYFGNYLSPGGRPAQELKKRLLGSCRQSAEEELYRFEQLIGGQRTYLGHPIPKDAPPRPDRSAVWDEVHWKWGN”: the “soluble on expression in E. coli” value is “not soluble”. Consider “ELYGASPDIDLGTGPTPTLGPVTPEICKQDIVFDGIAQIRGEIFFFKDRFIWRTVTPRDKPMGPLLVATFWPELPEKIDAVYEAPQEEKAVFFAGNEYWIYSASTLERGYPKPLTSLGLPPDVQRVDAAFNWSKNKKTYIFAGDKFWRYNEVKKKMDPGFPKLIADAWNAIPDNLDAVVDLQGGGHSYFFKGAYYLKLENQSLKSVKFGSIKSDWLGC”, for which the “soluble on expression in E. coli” value is “soluble”. Take “MQEEVNEKTVSLCITGGKVTARLLKQAMMRFLAAMEKEKAEKARKQQVKGPPDKDYHGKQSLKKLAQQNVQLSNIEITDNNIKAFEKVAKKYGIDFSLKRDKSVDPPRYFVFFKARDVDVMTAAFREFTGKTLNKTKKPSVRKKLQQAIAARSQDKQREREKSKEKQKEPTL”: the “soluble on expression in E. coli” value is given as “not soluble”. With “MSLSQHIRKLDSDVSERLKSQACTVSLASAVREIVQNSVDAHATTIDVMIDLPNLSFAVYDDGIGLTRSDLNILATQNYTSKIRKMNDLVTMKTYGYRGDALYSISNVSNLFVCSKKKDYNSAWMRKFPSKSVMLSENTILPIDPFWKICPWSRTKSGTVVIVEDMLYNLPVRRRILKEEPPFKTFNTIKADMLQILVMHPMISLNVQYTDKLRINTEVLFRSKNITEGLTKHQQMSQVLRNVFGAIIPPDMLKKVSLKFNEYQIEGIISKMPVGLKDLQFIYINGRRYADSAFQGYVDSLFQAQDFGEKGMSLLKTKSVGKPYRSHPVFILDVRCPQTIDDLLQDPAKKIVKPSHIRTIEPLIVKTIRSFLTFQGYLTEGHHHHHH”, the “soluble on expression in E. coli” value is “not soluble”. Regarding “MAHRNTYEAVLHKIQVGSPEDGNGAIRILQLSDLHLEKLSISPDDLYEKLRGEPIDFIALTGDFLDREASIPKLGPYLTALKKLQPAYGMYAVFGNHDYVLQGEPFERLKATLEEHGCIVLQNEMKTITVHGQTVNIIGIDDFYTRRSNMKKAYAGVKDGINIVLTHDPDIVPHMGAYHFDYLLSGHFHGGQIHWPKPYHLAKMSKTLTKRNMIKGYHEWEGKPFYINEGLGQTGVNIRVGSKPEVTLHLLSLPSVAQSETVKAVLEHHHHHH”, the “soluble on expression in E. coli” value is listed as “soluble”. In the case of “SAQDLRMSYCYAKFEGGKCSSPKSRNHSKQECCCALKGEGWGDPCELCPTEPDEAFRQICPYGSGIIVGPDDSA”, the “soluble on expression in E. coli” value is given as “soluble”. As for “ERIQQFYFEVKNKDKFEALCRIIDVEEPETTIIFCRTKRGVDELVESMQFRGYNVEGMHGDMSQNQRINTLKKFKENNIDFLVATDVAARGIDVHNVSHVINYDIPQDMESYVHRIGRTGRANAEGIAYSLVTPREYVMIKQIEKFTKSKIRRKEIPTIDDIFETKYNTLTDKITKNIEKDDFKKYIPFVQKLDDEFNLVDVSAALVKMIFDKEMGFDYSDDDKLKSDESVR”, the “soluble on expression in E. coli” value was “not soluble”. Then “MAHHHHHHMALPRGMHLLLKIYLQKCRLRWLREALNCIRGMVSMRLVMASMGSTPVERHKGEVAPGAEGEDTHFWLDGSFAEAEEALRQFFEMIKFPLPQRFSFAEEIRRDMKKRYPHCGEEALKSEEDITVVDAAALFKCVDGYIAFLSTRSDVGIGNAE”, with “not soluble”; and “MGSDKIHHHHHHMRRVISIFRKLSAVYCHTGNFAEGIRVCKYALGRFTEMEDKYKCIFTFNMSLYYNYLGEYGKALNAITGFESVIKATYEDRYYKVLLLKADCYYGAERYAESLSIYNKLISITLKDDFNNLCVYYNNMTQVYLRMGKRDMAVNCINTVINNLHNISDDFEALPQIYAELGKSYLMMADNDKSIKYLTIALKLSKDFKYYSVTKDILNELSKIKGNSNKLKLKDEFIILTENMGRSYDSLNHSLVFNIIQYYTRLGDVASINELCEYCKERKVG”, with “not soluble”; and “MGGGGHGGGITYKGVTVHTPKTWHTVTGKGLCAVMWFWILYRAKQDGPVVMGWRHPWDGHGDHGHGDHH”, with “not soluble”. As to “MAGDPMDTISRISSYVAGKVVKYPGLKYIAGVAISYAIHKFEESGLWRSVPIDKYIQLPRELEHHHHHH”, the “soluble on expression in E. coli” value is on record as “not soluble”. In the case of “MKRFFLKTILAAFCVYVPAILNTAYACTRIVYQGPNGTIITARSMDWKGEIPANLWIFPRGIERNGEAGSTSVKWKSTYGSVITSSWDIASSDGMNEKGLVGNLLWLVESTYPKFVKDKDKPGLAVSLWLQYVLDNFATVSEAVAFLEKEPFVVASSHIPGTAIFATVHLSISDATGDNAIFEYIGGKLVIHHDRSYVTMTNSPVFDEQLAINTYWKNIPGTVMLPGTNRAADRFVRASYYIDAIPKTDNTRVALPSVFSVIRNCSVPLGISSEAEPNISSTRWRTVSDQKNLVYYFDNVLNPNVVWVEFSKIDFSEKAKVKKLTLANNENYSGEASMNFKAALPFTFAGLD”, the “soluble on expression in E. coli” value is “not soluble”. Turning to “MAHHHHHHMSKDGNCGGCSAPWGKMPQSPMTPLSDARDSPTAPLCSHSAFSKVNKESSEEESFVVGKYQTSMCPICLESFTHENPAVVVGCGHSFHLQCVEDWRQRSPICPVCMIVLRGDGLPMHTGRQSQRPSEVSPSQRKGRATTSTMTSASSGTTFMVTAGGVHGRVLDTKPPSVVNASAGVEGSGSVVDVGNVSFLSRVRRCMKFCCTCEDDL”, the “soluble on expression in E. coli” value is “not soluble”. “MEETNAFSAFNQLLMSQNVVSPTKQPMELTNEKLMEFVRNAMQNQQGLPEVPNIIPSALPSMLSQIPTQPMPQMPVVIQTSQMNDVMGDQMLKASPSASSDMSSLDSDVADHPMTMMMQQQQDFQNPLQQLTIDSSANIAAGVNGNTEQRSSGRHETWLECFNTTKFAEYEALLFSVYVAERTDRKYDGWTYFDCLHRLQSKCRYRVRAKKQDEFYIIEEKGVHNHGAVEPVGQAGSHAGLPKTIREIVDRSYNENWPVEARTIKVDEEIQRLGLPENPRLGRQIDNRLAYLRRVKNLHETRRIQDQVNGTMVIKDPVKEAMLQALMEQNGGQLTVGQGFVDQIIANQGIPEMPIKKEEPTQPVESMEMAEQVAKPLAMNPSPDFFQFLQNQKLSHEHEQQQQQLHAAILAQAQAHAQAQAQAQQNLMESQKNIHQ”: the “soluble on expression in E. coli” value is “not soluble”. Take “GMTGAVETESMKTVRIREKIKKFLGDRPRNTAEILEHINSTMRHGTTSQQLGNVLSKDKDIVKVGYIKRSGILSGGYDICEWATRNWVAEHCPEWTEGQPIILNEEGDFTLGPLPE”: the “soluble on expression in E. coli” value is “soluble”. As to “MKGDRLKANVLAVRLIPNVDSDMAKELGLPNEHRSIGILTADCDDVTYTALDEATKKAVVDVAYGKSFYGGAANANTKLAGEVIGILSGPTPAEVKSGLAAAVDFIENEAAFISANDDDSIAYFAHCISRTGTYLSKTAGIPEGESLAYLIAPPLEAMYALDVALKAADVRLVAFYGPPSETNFGGGLLTGSQSACKAACDAFAEAVKFVADNPLNY”, the “soluble on expression in E. coli” value is listed as “soluble”.

As to “MGSDKIHHHHHHMSTFHPHPPTQNRLLAALPPIELDDLAPHLELVHLLPGDVLCKAGKQLSYAYFPTSSVISIHCLLENGTLSELTSVGREGMLGVSLFMGGEDTQSSATVQSAGYGYRLNAAFLLQEFNEGGMLQRLLLRYSHALVTEAAQNVICSRYHTAQQRLCRWLMSTWDRLGSQELVLTQESIASILGIRRESVTAIARRLQEAGTICYRRGRIMVNDQAALQRESCECYDIIKKEFDGVFDDVRVCEKARQNSINAANAL”, the “soluble on expression in E. coli” value was “not soluble”. On to “MAHHHHHHMTEPVRILVRRDEITVDSIMQYFVAVDEEKNKFETLCDLYDTLTIAHAVIFCNTRKKVEQLAKKMRKEKFSVSCMHGDMPQAERDEIMRNFREGKSRVLISTDLWSRGIDVEQVSLVLNYDLPFSREQYIHRIGRTGRMGRKGLAISFVKHDELRLLRDVEQFYATQIEELPANIADQF”, for which the “soluble on expression in E. coli” value is recorded as “not soluble”. Turning to “MKFCYNVVTYCTKRKNNLQEYSIEITLQHPDDMMSLFGSNERHLKLIEENLDVIIHARTERVQVLGDSEEAVETARLTIEALLVLVNRGMTVNTSDVVTALSMAQNGSIDKFVALYEEEIIKDSYGKPIRVKTLGQKIYVDSVKNHDVVFGIGPAGTGKTFLAVTLAVTALKRGQVKRIILTRPAVEAGESLGFLPGDLKEKVDPYLRPVYDALYQILGKEQTSRLMEREIIEIAPLAYMRGRTLDDAFVILDEAQNTTIMQMKMFLTRLGFNSKMIVNGDVSQIDLPKNVKSGLIDAVEKLRNIKKIDFIHLSAKDVVRHPVVAEIINAYSDSESSHKLQSDKD”, the “soluble on expression in E. coli” value is listed as “not soluble”. As for “GSEQQDLDDLAQVILSAVTSNTDTSKSARAQALSTALASSLADLLISESSGSSYQTQISALTNILSDCFVTTTGSNNPAFVSRVQTLIAVLSQSSSNAISGATGGSAFAQSQAFQQSA”, the entry is “soluble”; as for “MSFKDPPTLQQLARRSLLKDEALTISALPNLPVQLFPPLFKDAFTSRQRKILSLMVATWPFPVLPVGALCGIDHLETLKAVLDGLDLLMSQKDRPSRWNLQVLDLRDAHQDFWDGWAGLLHEVCSQDVFGKNQPVGNHPIPGGKQTISIKMNLSLKYCRRHSHCENLNYLYYWAKQRKDVIQVIFEKLEFTGKHCLRLKLWRLLKLSFVASIQELTIKSIHWDIYNLALIASCLGQMKNLQKLILMNIRRPSSLTDLQEARIITEIFSEFSKLHKLQHLYVNDVYFLKERLDLMLRCFERPLETLTITYCKLSESDMRYLSQCPSIHQLKYLDMSYTTFKPSSHRFLGFLGSLLERLTATLQTLKLECFHLTDSRIRDLLPGLSQCSQLTEVDFVENKFSMVSLKTLLQHTANLTQLTLEKYPAPDEVYDDSLCVIPDRFVQLCSELMNTLKGVRQPKQVYFESTIYSPNFEYLVYNLEGMVSSEPLRRRGRGMVIYISG”, “not soluble”.
